Results taken from patent US20040043378A1.

Target: lysine-acetylated histone H4 peptide SGRGKGG-AcK-GLGK (Lys8 acetylated)
Test: 15N-HSQC backbone amide chemical shift change upon binding to the AcK peptide

“bromodomain of P/CAF (residues 719-832 of SEQ ID NO:2) (from UniProt Q92831 719-832)” was tested, and the maximum weighted chemical shift difference (Tyr809) was 0.16 ppm.
